# The RNAGym collection of RNA variant scans (doi:10.7554/elife.90254)
# B1: LINE1-full (parent)
# chain: UACGUAGGUGGUUUUCCCCUGAUAGUGCUAAGGGGGCCUGGAAGUUUGGACUGGGCAGAGCUCAACACAGCGUGGCAAAGUGGCUGUGGCUAGACUGCCUCUCUGGAUUCCUCGUCACUCAGCAGGGCAUCUCUGAGAGAAAUGCC
# Variants of: B1
# Experiment: self-cleavage, relative activity (ratio to wild type); higher = more cleavage; in vitro, sequencing; the parent is a self-cleaving ribozyme
row,Variant,self-cleavage
1,U12C U130C,1.4
2,C3U U5C,1.16
3,G10A U119A,0.93
4,A6G A50G,0.77
5,A78G U102C,1.53
6,A6G A129G,0.26
7,U15C A140C,1.12
8,A42G C145G,1.14
9,U13C G127U,1.36
10,C63U A141G,0.36
11,G27A A79G,1.07
12,G7A A94G,0.14
13,G41A A129U,1.42
14,C90U A107G,0.03
15,U104G U134C,1.39
16,C28U A77G,1.38
17,A117C G139A,1.65
18,G89A U143A,0.05
19,U87C U109C,0.27
20,U1C A69C,0.07
21,G58A U115A,0.1
22,G58A U115C,0.06
23,A124G A141G,1.39
24,U46C G49A,1.4

row,Variant,self-cleavage
1,C19U C84U,0.22
2,A30G G49U,0.89
3,A69U A94G,0.02
4,U104C G144A,2.03
5,A2G U112A,0.09
6,G34A,1.16
7,C128A U130C,1.11
8,A43G A50C,1.73
9,U62A G86A,0.05
10,G74U A92G,0.06
11,U108A G122U,0.97
12,G40A A69G,0.49
13,A6G G127A,0.46
14,U39A A92U,0.57
15,U47G A67G,0.06
16,U20A A67G,0.45
17,A2G C19A,1.24
18,U108A C133A,1.42
19,U5A C128U,1.06
20,A64G A121G,0.28
21,C19U A78C,1.71
22,C95U U104C,0.54
23,G122U,1.3
24,U9C A121G,1.27

row,Variant,self-cleavage
1,A117U C131U,1.21
2,U1A U13C,0.91
3,U134C A138U,1.65
4,U52C U62G,0
5,A94C G126C,0.23
6,G41A U62C,0.08
7,G33C A79G,1.78
8,A64G A78U,0.23
9,G32A U134C,1.22
10,A124G U130C,1.58
11,U96A G127U,0.05
12,U87C U132C,0.19
13,A107C G114A,1.74
14,G58A A79G,0.06
15,A69U A92G,0.03
16,A92G C113U,0.1
17,C17G U102A,1.38
18,U23C U47C,1.32
19,U134C U143C,1.21
20,C38A A69G,0.61
21,A57U A94G,0.14
22,U13A C71A,0.12
23,A57U A78G,0.03
24,A92G A138U,0.11

row,Variant,self-cleavage
1,U9C U13A,1.11
2,C63A A79G,0.12
3,U15C U85A,0.1
4,A22G A50U,1.32
5,A77G C103U,1.99
6,G25A U85A,0.08
7,U62C G122C,0.03
8,U5C C71U,0.68
9,U47C A117U,1.33
10,U73A A78U,1.94
11,G86U A129U,0.09
12,A121G A124U,1.62
13,U12G G89A,0.14
14,G7A G89A,0.02
15,U62A G82A,0.03
16,U23A A142G,1.12
17,U14A U112C,0.79
18,U14C C90A,0
19,U52A A65U,0.21
20,U1C A138G,0.7
21,U73C U96C,0.11
22,A31C U45C,1.84
23,A138U U143G,1.5
24,U112A G114A,0.38

row,Variant,self-cleavage
1,U100C U134C,2.01
2,G75U U81C,0.83
3,U26A A30U,1.56
4,U85A U108G,0.12
5,G74U A142G,1.63
6,C76U A77U,2.05
7,C28U C38U,1.06
8,A31U U132C,1.39
9,U39C A77U,0.96
10,A24G A92C,0
11,U100G A136G,0.59
12,A69C C131A,0.09
13,A65G U134C,0.06
14,U73A G105A,2.29
15,U104C U134G,0.75
16,G53A U112C,1.25
17,G32A U47C,1.58
18,A64C C101U,0.28
19,U52C U96C,0.02
20,U85C A140U,0.16
21,A43C U109C,0.26
22,A67U U96C,0.07
23,C99U U130C,0.69
24,A78U G127C,2.34

row,Variant,self-cleavage
1,G41A U85A,0
2,G11U A69G,0.44
3,G55U A142G,0.11
4,U109G A140G,0.21
5,G34A U85A,0.1
6,A50G A92G,0.19
7,G93U A136G,0.08
8,U9A C120U,1.12
9,G34A A92G,0.08
10,G53A A124U,1.28
11,U46C A77U,1.51
12,C99U U108C,0.71
13,C3A U13A,0.79
14,A43G C128G,0.77
15,U85A U104G,0.02
16,A59U C103U,0.5
17,U39A U102A,1.62
18,A129U U132A,0.04
19,A64C A141G,0.48
20,A57G U112A,0.99
21,A43U U102C,0.25
22,A78G G126C,1.99
23,U13A U130A,1.15
24,G44A G89U,0.02

row,Variant,self-cleavage
1,A22G G53U,1.29
2,A6U U39C,0.84
3,G89A A117U,0.04
4,A129G G135A,1.63
5,A6U A65U,0.33
6,C28U A107G,0.88
7,U15G G126C,1.19
8,A43U U47A,1.44
9,U100G A107G,1.31
10,C16U A77U,1.4
11,U12A U119C,1.54
12,U52A U108C,1.66
13,G122A A124G,0.62
14,U20A U26C,1.11
15,U5C U62C,0.07
16,A59U A79G,0.83
17,A92G U100A,0.13
18,A117G A136G,1.66
19,U39A U115A,1.42
20,U39A U115C,1.31
21,A142C,0.53
22,A57G G82A,1.75
23,A24C U73A,0.46
24,G7U U39A,1.67

row,Variant,self-cleavage
1,U91C A142G,0.73
2,G60U,0.01
3,G34A U115C,2.03
4,G34A U100C,1.37
5,A59G C133U,0.08
6,G74A C84U,0.07
7,A92G U119C,0.1
8,U26G A57G,0.82
9,U91G U119C,0
10,U46C C71G,0.96
11,A42U U45A,0.95
12,U73C U112C,1.65
13,C133U A141G,1.4
14,A22C U73C,1.88
15,A78G U119G,1.04
16,A22C A92U,1.7
17,U5C U87C,0.15
18,A22U A50U,0.39
19,A42G G88A,0.09
20,G33U A117G,1.39
21,U108C A117U,1.83
22,A107U A140G,1.58
23,G70U A92G,0.08
24,C118U A141U,1.6

row,Variant,self-cleavage
1,G53C U115C,1.96
2,G33U G114A,1.36
3,A67U G89A,0.03
4,A124C A138G,1.39
5,U91A A92U,1.33
6,A57G A92U,0.3
7,U15G U104C,0.89
8,A69C C76U,0.08
9,U14C A136C,1.36
10,A6G G122A,0.55
11,A59G A79G,0.07
12,U26C A140C,1.19
13,U9A C37G,0.82
14,C19G A42G,1.41
15,C120U U132C,1.56
16,A50G A124G,0.51
17,G34A U108C,1.16
18,A22U G55A,0.37
19,U52A A77G,2.06
20,C76A A136G,1.79
21,U23C A138G,1.95
22,U47C A124C,1.31
23,C113G,1.58
24,C16A U81A,0.75

row,Variant,self-cleavage
1,U26C G114A,1.22
2,U9C G55U,0.37
3,A92G U109A,0.08
4,U20C A129G,2.29
5,A94G C110G,0.22
6,U91C C98A,0.06
7,G82A U104C,0.83
8,U13A G114A,1.03
9,G82A,1.75
10,U45C A140C,2.27
11,A42U A138U,1.34
12,G25A A136G,1.58
13,G48A U85A,0.05
14,A78G A140G,1.18
15,U1C G86A,0.06
16,A22C,1.51
17,U9C G127U,1.45
18,A107U G144A,1.79
19,G36C A107G,2.05
20,A57C A67U,0.14
21,U91C U104C,1.15
22,G36U U119A,1.4
23,C16A A142G,0.86
24,A59U C95U,0.19

row,Variant,self-cleavage
1,U5C A124C,0.8
2,C76A A78G,1.68
3,U130A A141G,1.46
4,U47C C71A,0.68
5,U13C U45C,1.16
6,A117U A141U,2.24
7,U5A U29A,1.16
8,A129U U134A,1.37
9,A124U A141U,1.27
10,U73C A107G,2.23
11,C61A U130A,0.06
12,U62C U134A,0.05
13,G33U A67U,0.17
14,U39C U109G,0.74
15,U29C C61A,0.03
16,G21A U85C,0.18
17,U115C A138U,1.64
18,U9C C90G,0.09
19,A78G A124C,1.59
20,G48U U134C,1.14
21,C111U U134C,2.26
22,U15A U109C,0.86
23,G75A U102A,1.36
24,C51U G127A,1.35

row,Variant,self-cleavage
1,G36A U81G,1.08
2,C18A U104A,0.85
3,U81C G88U,0.05
4,U15A U85G,0.28
5,G127A A140U,1.26
6,G86A U115C,0.12
7,U46G U112C,1.48
8,U46G U112G,0
9,U73C C146U,1.04
10,U29A U96C,0.13
11,C111U C116A,1.37
12,C63U U87A,0.07
13,A69G C120U,0.44
14,G21A U115A,1.46
15,U39C A121G,1.67
16,C16U U134C,2.6
17,A59G C116A,0.04
18,G80U U134A,1.45
19,A79U A117G,2.57
20,U13C U132G,1.02
21,U13C G114U,1.65
22,U9C A31G,0.91
23,A64U A121U,0.53
24,G25U U39C,0.47

row,Variant,self-cleavage
1,A69G C99G,0
2,U62A A65C,0.07
3,U100A A117G,0.61
4,A57G U132G,0.62
5,A65G A78G,0.04
6,A2U U109C,1.74
7,G8A U47C,1.82
8,A22U U47A,1.44
9,G83A A121C,0.67
10,A59C U115C,1.55
11,G32A U62C,0.07
12,U62A A92U,0.03
13,U62A A92G,0.07
14,C18A U45A,1.06
15,A140U A142G,1.73
16,C133A A136U,1.38
17,U46C U100A,1.22
18,A6G G48A,0.22
19,A64U A77U,0.48
20,A30U C38A,0.35
21,A24G U52C,0.12
22,U87A A121G,0.1
23,A43G U81A,1.68
24,U5C G27A,0.17

row,Variant,self-cleavage
1,U13C A65U,0.2
2,U46A A107C,1.99
3,G74A U108C,1.48
4,U14C U108A,0.98
5,U13C U20A,1.07
6,U39C A129U,1.05
7,A92C U112C,0.18
8,U5A A136U,1.11
9,A6U U23A,0.26
10,C90U A142G,0.03
11,U12C A57G,1
12,A42G G82A,1.95
13,U102C G144A,1.15
14,G72U U85G,0.1
15,A43G U73G,1.56
16,U13A A129G,1.2
17,A43U G60A,0.05
18,A30G U87C,0.11
19,G33A A141G,1.01
20,A2G G72U,0.53
21,G74U U91A,0.57
22,C3U U14C,0.81
